{"source": "patent US20180335433A1", "about": "“COMPOSITIONS TARGETING PKC-THETA AND USES AND METHODS OF TREATING PKC-THETA PATHOLOGIES, ADVERSE IMMUNE RESPONSES AND DISEASES” (La Jolla Institute for Allergy and Immunology, priority 2011, published 2018)", "molecules": {"B1": {"name": "V3 domain: amino acid 282-379 of human PKCθ with N-terminal Myc tag, expressed from pMIG retroviral vector (protein)", "chain": "GINQKLMAEALAMIESTQQARCLRDTEQIFREGPVEIGLPCSIKNEARPPCLPTPGKREPQGISWESPLDEVDKMCHLPEPELNKERPSLQIKLKIED", "modifications": "left off: small tags and cut ends", "notes": "amino acid 282-379 of human PKCθ with N-terminal Myc tag, expressed from pMIG retroviral vector"}}, "tested_on": "Th1-mediated lung inflammation", "experiment": "Th1-mediated Ova-induced airway inflammation after adoptive transfer of transduced Th1 effector cells", "type": "in vivo, mouse", "conditions": "transferred Th1 effector cells", "description": "(FIG. 7A-7D) OT-II CD4^+ T cells stimulated with anti-CD3 plus anti-CD28 mAbs and differentiated in vitro under Th2 (FIG. 7A-7C) or Th1 (FIG. 7D, 7E)-polarizing conditions were retrovitrally transduced with the same PKCθ V3 vectors as in FIG. 6. Sorted GFP^+ populations were adoptively transferred into naïve B6 mice, which were challenged with aerosolized Ova for 3 consecutive days. BAL fluid were obtained 1 d post-challenge and analyzed for total mononuclear cell infiltration (FIG. 7A, 7D) and cytokine expression using IL-4 (FIG. 7B), IL-5 (FIG. 7C) and IFN-γ (FIG. 7E) ELISA.\nCD4^+ T cells from OT-II B6 mice were isolated and cultured with plate-bound anti-CD3 (5 μg/ml), soluble anti-CD28 (2.5 μg/ml) and IL-2 (100 U/ml) under Th1 or Th2 polarizing conditions. The cells were retrovirally infected on days 2-4 and cultured for an additional 3 days. GFP^+ cells were sorted, and 1×10^6 cells were injected intravenously into naïve WT B6 mice. One day later, mice received aerosolized Ova (5 mg/ml in 20 ml PBS) for 30 min, once a day for 3 consecutive days, using ultrasonic nebulization. Mice were sacrificed 24 h after the last challenge and assessed for lung inflammation. Collection of BAL fluid and determination of cytokine levels were carried out as described (Salek-Ardakani, S. et al. J Immunol 173, 6440-6447 (2004)).", "data": [{"molecule": "B1", "values": [{"measurement": "inhibition of the Th1 lung inflammation response (leukocyte infiltration, IFN-γ in BAL fluid)", "result": "did not inhibit"}]}]}
